Reference: patent publication US20240139351A1, “TARGETING SYSTEM WITH IMPROVED UPTAKE” (CORETAG IP B.V., priority 2021, published 2024)

Legend:
[1] = system: intracellular proteins, including tubulin and actin; assay: Affinity of cyanines towards intracellular proteins; format: binding
Description: (§1) The present targeting molecule is very selective and very specific in binding to necrotic cells. […] For the present invention three specific cyanines are selected, namely 800CW, 800RS, and ZW-800. These molecules are found to have a high affinity towards the intracellular proteins, including tubulin and actin. […] As a result, very low concentrations c.q. amounts of the present system may be used to provide advantageous effects thereof. It is noted that apoptosis specific probes, in contrast to necrosis specific probes will also target healthy tissue as apoptosis is involved in normal tissue turnover. The present cyanine is attached to a second entity, namely a linker, wherein the linker may even be a relatively small molecule, the linker being attached to the present drug uptake improving molecule, wherein the drug uptake improving molecule is selected from aromatic compounds comprising a residue or group selected from amino acid residues, which latter molecule is attached to the chelator, wherein the chelator is typically selected from DOTA and NOTA comprising compounds (DOTA: 1,4,7,10-Tetraazacy-clododecane-1,4,7,10-tetraacetic acid and NOTA: 1,4,7-triazacyclononane-N,N′,N″-tri-acetic acid). Attached to the chelator a further entity may be attached, such as a radionuclide. […]

[2] = Clearance of cyanines in the human body; conditions: in vivo
Description: as §1

NCI-H69 tumor = assay: Biodistribution of 111In-radiolabeled compounds in mice bearing NCI-H69 tumors
Description: CORETAG has evaluated the radiolabeling, in vitro binding, pharmacology in tumor animal model, and PET or SPECT imaging with an overall expertise in targeted radiotherapy and companion imaging diagnostic. The aim of this part is to evaluate the biodistribution of the 4 compounds below and compare it to the biodistribution of DOT-AGA-PEG4-CW800 (prior art).
The injected activity was about 9.0 MBq.
The NCI-H69 cell line used is a human small cell lung cancer carcinoma that was
Tumor cells were grown at 37° C. in a humidified atmosphere (5% CO2, 95% air). The culture medium will be RPMI1640 medium containing 10% fetal calf serum. NCI-H69 tumor cells are growing as a cell suspension. For experimental use, tumor cells were harvested by centrifugation. Cells were counted and viability assessed using a 0.25% try-pan blue exclusion assay.
Thirty-one (31) healthy female SWISS Nude (Crl:NU(Ico)-Foxn1nu) mice, 6-8 weeks old at reception, were obtained from Charles River. The injection volume was 100 μl.
Tumors were induced by subcutaneous injection of 2×10^7 NCI-H69 cells in 200 μL of RPMI 1640 into the right flank of 31 female animals in the axis of the heart. NCI-H69 tumor cell implantation was performed 24 to 72 hours after a whole-body irradiation with a gamma-source (2 Gy, 60 Co, BioMep, France). The day of tumor induction is considered as D0.
All imaging experiments were performed on a 4.7T horizontal magnet (PharmaS-can, Bruker Biospin GmbH, Germany) equipped with an actively shielded gradient system. All the MR images were acquired under ParaVision (PV5.1, Bruker Biospin).

[3] = Aqueous solution concentration; format: physicochemical

## CC1(C)C(/C=C/C2=C(Oc3ccc(S(=O)(=O)O)cc3)C(=C/C=C3/N(CCCCS(=O)(=O)O)c4ccc(S(=O)(=O)[O-])cc4C3(C)C)/CCC2)=[N+](CCCCCC(=O)O)c2ccc(S(=O)(=O)O)cc21 [800CW]
[1]
  affinity towards the intracellular proteins: high affinity
[2]
  clearance in the human body: cleared in the human body specifically well

## DOTAGA-LYS-(PEG4-CW800)2 [component 5]
NCI-H69 tumor; all organs
  Uptake in all organs: increased
NCI-H69 tumor; mouse, in vivo
  concentration present (assessment): too high concentration
NCI-H69 tumor; tumor
  uptake in tumor: higher uptake

## IR800CW-PEG4-NaI-DOTA-GA [component 6]
[3]
  forms an aqueous solution: > 1 mM
NCI-H69 tumor; mouse, in vivo
  Radioactivity in blood (comparison between components): higher
  dosage to all organs tested compared to components 1-4: about twice as high
  dosage to the tumor compared to components 1-4: about twice as high
  uptake in tumor: higher uptake
NCI-H69 tumor; mouse, in vivo, 3 h
  Remaining radioactivity in whole body after 3 h: higher

## CC1(C)C(=CC=C2CCCC(C=CC3=[N+](CCC[N+](C)(C)C)c4ccc(S(=O)(=O)O)cc4C3(C)C)=C2Oc2ccc(CCC(=O)O)cc2)N(CCC[N+](C)(C)C)c2ccc(S(=O)(=O)O)cc21 [ZW-800]
[1]
  affinity towards the intracellular proteins: high affinity
[2]
  clearance in the human body: cleared in the human body specifically well
